In the supplement of paper PMC10567573:
± gives the standard deviation.

Assay: protein stability index of a GFP-peptide fusion (GPS, HEK-293T) (PSI 1-6); higher = more stable
Conditions: c terminus: a fixed tail appended
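Also: 24-mer peptide tiles fused after GFP, lentivirally expressed, FACS-sorted into six equal bins by GFP/DsRed ratio, decoded by Illumina sequencing, PSI is the read-weighted mean bin number.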

Sequence | protein stability index (treatment: DMSO) | protein stability index (treatment: MLN4924 1 uM, 8 h)
TEEQTRQERQGPAKPEVLSIQWPG [NECAB1] | 5.07 ± 0.058 | 5.14 ± 0.15
KSMHREELEKSGHGQAGQRQDPRP [ZBED2] | 5.21 ± 0.13 | 5.2 ± 0.3
AAAAAAASAAAATAAFTTAKAAAL [SPAG8] | 2.33 ± 0.26 | 2.62 ± 0.75
RKQKQELCEKFDYLYGILEERKNE [TRIM55] | 3.72 ± 0.36 | 3.67 ± 0.54
LELHDYHDIIKHPMDLSTVKRKMD [BRD3] | 4.05 ± 0.19 | 3.98 ± 0.34
RHCPYLDTINRSVLDFDFEKLCSI [USP39] | 2.61 ± 0.23 | 2.56 ± 0.3
PAPERTMAGLSKEPNTLRAPRVRT [VENTX] | 4.86 ± 0.29 | 4.85 ± 0.32
DIDLSLYIPRDVDETGITVASLER [ZC3H15] | 3.19 ± 0.28 | 3.5 ± 0.23
LGMYQKVTSYCRSATLVGFTVGSV [SLC19A2] | 2.74 ± 0.6 | 2.73 ± 0.41
QKFRNQFLSFSMYQSFVQFLQYYY [TMEM120A] | 2.42 ± 0.21 | 2.41 ± 0.17
GGDEVDDSVSVNDIDLSLYIPRDV [ZC3H15] | 4.62 ± 0.13 | 4.45 ± 0.61
PSLRPRPASSISLPIGHLGCISLL [DMRTC1] | 2.55 ± 0.35 | 2.85 ± 0.43
GMANGQQWLQSTSGSQRHMVGQKD [TLE6] | 4.49 ± 0.17 | 4.47 ± 0.29
GSTLAMLQRLKEQQFVIAGVLVED [ZBED1] | 2.22 ± 0.46 | 2.1 ± 0.19
LLEERRPADSAQLLSLNSLLPESG [TFE3] | 4.37 ± 0.42 | 4.54 ± 0.24
EVMERDAKDYADSIHAIFVETSAK [RAB22A] | 4.15 ± 0.28 | 4.13 ± 0.24
LIVVTQSHLVIHNLFEGMIWFIVP [CDS2] | 3.06 ± 0.41 | 3.25 ± 0.59
TCIDMDWKVLTWLRYTLWIPLYPL [HACD3] | 3.08 ± 0.28 | 3.29 ± 0.5
QWLQSTSGSQRHMVGQKDSVILSV [TLE6] | 2.12 ± 0.093 | 2.29 ± 0.27
KCKSTLSPPEASPGPPAAPRARRR [PWWP2B] | 5.19 ± 0.12 | 5.34 ± 0.26
GLQAQILHCYRDRPHEVLLCSDLV [CHCHD6] | 2.39 ± 0.39 | 2.16 ± 0.33
HLEYRFYKQLGSAGEGLPQVYYFG [CSNK1G1] | 2.2 ± 0.47 | 2.15 ± 0.68

Sequence | protein stability index (treatment: DMSO) | protein stability index (treatment: MLN4924 1 uM, 8 h)
MRYLRNHCLDQVGLFRKSGVKSRI [DLC1] | 2.64 ± 0.36 | 2.64 ± 0.37
IAIARLRGSDLKVLEVTEESIDFD [FBXO33] | 2.73 ± 0.3 | 2.77 ± 0.47
MGNSMKSTPAPAERPLPNPEGLDS [SLA] | 5.07 ± 0.49 | 5.13 ± 0.59
FNSILPGVLILFLTFFAFLHCWLN [SOAT1] | 2.22 ± 0.63 | 2.29 ± 0.36
YQILTLEKDQEQVVMNLDSRLLIF [GMCL1] | 2.77 ± 0.67 | 2.66 ± 0.7
LSIQLQPKETQPFPKSEQVYLHFL [ZNF232] | 2.4 ± 0.25 | 2.52 ± 0.35
GLERRDWSPSPPATPEQGLSAFYL [SPDEF] | 3.03 ± 0.25 | 2.84 ± 0.15
DERTHRSDRPFKCNQCGKCFIQSS [ZNF8] | 2.98 ± 0.42 | 3.25 ± 0.47
KPVDMWACGVILYILLVGYPPFWD [CAMK2D] | 3.46 ± 0.29 | 3.36 ± 0.41
EPHSLLHLSRLCVRHNLGDTRLGQ [SPSB2] | 3.44 ± 0.18 | 3.35 ± 0.19
EGHQAWIVGIVEKGNRTARIIDKP [SEPHS2] | 1.95 ± 0.24 | 2.42 ± 0.43
VEGAMHIQECVPEDLELKKKIFAQ [CRYL1] | 4.74 ± 0.45 | 4.27 ± 0.2
AIFWIVFLLLIVFYTAITKKIFKS [P2RY14] | 2.42 ± 0.6 | 2.27 ± 0.2
SPGELEEDLLLPGACPGADEAGGG [WEE1] | 5.42 ± 0.24 | 5.5 ± 0.12
DAHFCAVCSDYASGYHYGVWSCEG [ESR2] | 2.2 ± 0.45 | 2.49 ± 0.42
FEGEGDYEEGMYADWWQEPDAKGD [P3H4] | 5.31 ± 0.12 | 5.35 ± 0.16
TRLLLQFTQPQQTSFALERNLRTQ [C8orf76] | 2.33 ± 0.46 | 2.52 ± 0.27
KGRTIYLEDIYVMPEYRGQGIGSK [SAT2] | 2.44 ± 0.31 | 2.79 ± 0.12
TNETNVNIPQMADTLFERATNSSW [SNAP91] | 3.77 ± 0.11 | 3.99 ± 0.2
LIQNEYRNGGSLADAISENYRIMS [WEE1] | 2.38 ± 0.31 | 2.5 ± 0.48
REHKETCEMDWSDKMEAYNIDETC [TEKT4] | 5.26 ± 0.19 | 5.14 ± 0.077
TEDVGVVCSDKRIPGFKFDNSLIN [LOXL2] | 3.76 ± 0.28 | 3.75 ± 0.3
